# Paper PMC11014671, “Small molecules that disrupt RAD54-BLM interaction hamper tumor proliferation in colon cancer chemoresistance models” (The Journal of Clinical Investigation, 2024)
# How the values were obtained:
# [1] = molecular target: His-RAD54 WT (full-length recombinant RAD54) (UniProt Q92698); assay: BLI; Octet; His-RAD54 WT immobilized onto Ni-NTA sensor, different concentrations of biotin BLM_peptide
# RAD54 = molecular target: T1, RAD54 (Homo sapiens, UniProt Q92698); assay: biolayer interferometry (His-RAD54 immobilized); tryptophan fluorescence quenching; assay type: binding
# T1 construct: gene RAD54L; His-RAD54
# T1 sequence (Q92698 1-747): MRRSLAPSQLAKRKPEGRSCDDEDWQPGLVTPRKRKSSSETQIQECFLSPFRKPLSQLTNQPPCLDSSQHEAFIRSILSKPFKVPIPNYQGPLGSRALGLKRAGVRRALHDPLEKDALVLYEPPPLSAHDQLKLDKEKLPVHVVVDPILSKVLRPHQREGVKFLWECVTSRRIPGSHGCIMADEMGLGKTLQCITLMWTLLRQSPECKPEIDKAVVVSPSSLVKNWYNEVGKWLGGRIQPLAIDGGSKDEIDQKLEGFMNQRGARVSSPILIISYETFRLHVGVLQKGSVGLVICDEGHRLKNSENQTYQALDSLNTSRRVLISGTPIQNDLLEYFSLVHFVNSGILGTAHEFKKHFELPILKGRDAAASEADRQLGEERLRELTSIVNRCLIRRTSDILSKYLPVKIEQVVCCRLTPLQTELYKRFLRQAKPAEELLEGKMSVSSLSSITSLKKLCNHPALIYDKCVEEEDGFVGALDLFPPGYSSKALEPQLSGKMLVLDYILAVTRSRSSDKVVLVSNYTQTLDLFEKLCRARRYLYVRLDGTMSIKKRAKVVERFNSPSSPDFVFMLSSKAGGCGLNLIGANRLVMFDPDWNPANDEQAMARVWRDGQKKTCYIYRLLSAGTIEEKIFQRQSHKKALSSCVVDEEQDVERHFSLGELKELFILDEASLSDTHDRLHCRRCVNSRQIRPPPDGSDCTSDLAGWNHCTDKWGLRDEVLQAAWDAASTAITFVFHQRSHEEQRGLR
Kd [1] [µM],Compound,Kd (RAD54) [µM]
0.0108,biotinylated BLM (aa 181–212) peptide,
,"CC(=O)Nc1nnc(S(N)(=O)=O)s1 [C3, acetazolamide]",55.8
